From patent publication US20240239886A1 (YEDA RESEARCH AND DEVELOPMENT, published 2024)
Read-outs that look alike come from different tables or passages of the source.

Experiments:
soluble TREM2 protein = target: T1, soluble TREM2 protein (human, UniProt Q9NZC2 19-157); assay: sup ELISA, hTREM2 vs WT 293HEK supernatant
T1 construct: also called TREM2 in cell culture supernatant (Sup)
T1 sequence: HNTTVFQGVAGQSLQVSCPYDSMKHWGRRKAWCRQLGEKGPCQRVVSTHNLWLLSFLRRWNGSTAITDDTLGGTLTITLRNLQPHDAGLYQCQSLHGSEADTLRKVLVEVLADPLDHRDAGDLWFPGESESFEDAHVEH
Procedure: Supernatant was collected, centrifuged for 5 min at 900 g and filtered (0.45 μm). Ninety six-well ELISA microplate was coated with 0.2 μg/well of anti human TREM2 Antibody (AF1828, R&D) diluted in PBS, and incubated at 4° C. overnight. The plate was rinsed three times with 0.05% tween20 in PBS, blocked with 1% BSA in PBS at room temperature (RT) for 1 hr, and rinsed again. The plates was incubated with the cell culture supernatant (100 μl/well) for 2 hrs at RT for and rinsed again. The plate was incubated with 0.1 μg biotinylayed anti hTREM2 antibodies for 2 hrs at RT. After incubation, the plate was rinsed and incubated with streptavidin-HRP (DY998, R&D) for 20 min at RT. The plate was rinsed and incubated with TMB Reagent (TM4500, Scytek) for 20 min at RT, followed by the addition of Stop Solution 2N Sulfuric Acid (DY994, R&D). OD was measured using an ELISA plate reader at dual wavelengths (450 nm and 570 nm)
(§1) A. Cells culture supernatant (Sup) was used for soluble TREM2 protein binding capability test of 18 hybridoma derived monoclonal antibodies by direct ELISA. B. Cells were captured in 96 wells plate and were used for cell based ELISA of 18 hybridoma derived monoclonal antibodies. OD values positive cells (hTREM2 expressing HEK293) and negative cells (WT HEK293) are showing in the table.

[1] = target: T2, human TREM2 (hTREM2) on cells (human, UniProt Q9NZC2 19-230); assay: cell-based ELISA, hTREM2 vs WT 293HEK cells
T2 construct: also called hTREM2 expressing HEK293
T2 sequence: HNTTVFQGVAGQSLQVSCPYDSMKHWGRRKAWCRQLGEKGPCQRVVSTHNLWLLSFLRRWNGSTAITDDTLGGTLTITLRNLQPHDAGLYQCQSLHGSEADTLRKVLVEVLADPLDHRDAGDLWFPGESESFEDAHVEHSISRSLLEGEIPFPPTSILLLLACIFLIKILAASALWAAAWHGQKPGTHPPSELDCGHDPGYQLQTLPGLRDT
Procedure: Cells were washed three times with PBS and blocked (5% FBS, 1% BSA in PBS) for 2 hrs at RT. Cells were washed with 1% BSA in PBS and were incubated with 0.1 ug (or indicated amount) obiotinylayed anti hTREM2 antibodies for 4 hrs at RT. After incubation, cells were incubated with streptavidin-HRP (DY998, R&D) for 20 min at RT. The cells were washed and incubated with TMB Reagent (TM4500, Scytek) for 30 min at RT, followed by the addition of Stop Solution 2N Sulfuric Acid (DY994, R&D). OD was measured using an ELISA plate reader at dual wavelengths (450 nm and 570 nm). Biotinylation of Antibodies was done using EZ-Link™ Sulfo-NHS-LC-Biotinylation kit (Thermo Fisher Scientific) according to manufacturer's instructions.
as §1

[2] = target: T3, recombinant protein consisting of the extracellular domain of human TREM2 fused to the His tag (human, UniProt Q9NZC2 19-174); assay: direct ELISA; highest dilution with S/B >= 2.1
T3 construct: also called His tagged hTREM2; His-TREM2
T3 sequence: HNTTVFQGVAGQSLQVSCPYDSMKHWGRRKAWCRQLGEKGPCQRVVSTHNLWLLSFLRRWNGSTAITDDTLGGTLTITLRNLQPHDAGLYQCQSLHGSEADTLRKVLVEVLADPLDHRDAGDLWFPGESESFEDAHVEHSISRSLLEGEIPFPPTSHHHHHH
Procedure: (§2) Ninety six-Well ELISA microplate was coated with 0.5 μg/mL, 100 μl/well His tagged hTREM2 diluted in PBS pH 7.4, and incubated at 4° C. overnight. The plate was rinsed three times with 0.05% tween20 in PBS, blocked with 1% BSA in PBS at room temperature (RT) for 1 hr, and rinsed again. The plates was incubated with the anti hTREM2 antibodies (100 μl/well) for 2 hrs at indicated concentration, at RT. Plate was rinsed and incubated with Peroxidase-AffiniPure Goat anti Mouse IgG, Fcg fragment specific (min X Hu, Bov, Hrs, Sr Prot; Jackson ImmunoResearch) for 20 min at RT. The plate was rinsed and incubated with TMB Reagent (TM4500, Scytek) for 20 min at RT, followed by the addition of Stop Solution 2N Sulfuric Acid (DY994, R&D). OD was measured using an ELISA plate reader at dual wavelengths (450 nm and 570 nm)
(§3) Purity is measured by SDS-PAGE. Quantity of endotoxin (EU/mg) is measured by LAL assay. Titer measured by direct ELISA, while the title value is the highest dilution with S/B (Signal/Blank) >= 2.1

[3] = target: T4, recombinant protein consisting of the extracellular domain of human TREM2 fused to the His tag (UniProt Q9NZC2 19-174); assay: SPR
T4 chain: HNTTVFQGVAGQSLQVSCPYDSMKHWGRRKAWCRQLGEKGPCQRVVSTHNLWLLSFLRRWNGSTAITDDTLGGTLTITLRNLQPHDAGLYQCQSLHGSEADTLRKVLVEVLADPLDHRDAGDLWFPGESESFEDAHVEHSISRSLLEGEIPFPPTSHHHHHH

[4] = target: T3, recombinant protein consisting of the …; assay: direct ELISA
Procedure: as §2

[5] = target: T3, recombinant protein consisting of the …; assay: direct ELISA, coated His-TREM2 0.5 ug/mL, Ab stock 1 mg/mL
Procedure: as §2

[6] = target: T3, recombinant protein consisting of the …; assay: direct ELISA; highest dilution with S/B >= 2.1; remark: listed apart in the source
Procedure: as §2, §3

[7] = target: T2, human TREM2 (hTREM2) on cells; assay: flow cytometry on BMDM
Procedure: TREM2 KO and hTREM2 BMDM were washed with MACS buffer (PBS pH 7.2, 0.5% BSA and 2 mM EDTA) and stained with biotin conjugated anti hTREM2 antibodies (10 μg/mL) followed by Washing with MACS buffer and APC-streptavidin (Biolegend, 405207) incubation, then analyzed by flow cytometer (LSRII, BD).

B1: 54H2C1 (antibody, V domains shown)
VH: QVQLQQPGAEPLTPGASVKMSCEASGYTFTNFWITWVKLRPGQGLEWIGDIYPGSGNTNYNEKFKSRATLTVDTSSTTAYMQLSSLTSEDSAVYYCAREAYYTNPGFAYWGHGTLVTVSA
VL: DVLMTQSPLSLPVNLGDQASISCKSSQNIVHSNGNTYLEWYLQRPGQSPKLLIYKVSNRFSGVPDRFSGSGSGTDFTLKISRVEAEDLGLYYCFQGSHVPYTFGGGTKLEIK
notes: Biotin conjugated in sup ELISA, cell-based ELISA and flow cytometry
Soluble TREM2 protein
  sup ELISA positive/negative (293HEK): 25.1 ratio
[1]
  Cell based ELISA positive/negative: 2.69 ratio
[2]
  Titer: 729000 dilution
[3]
  Kd: 0.399 nM
[4]
  direct ELISA positive/negative: 33.9 ratio
[5]
  OD at dilution 1000: 1.4 OD
  OD at dilution 3000: 1.35 OD
  OD at dilution 9000: 1.18 OD
  OD at dilution 27000: 0.967 OD
  OD at dilution 81000: 0.586 OD
  OD at dilution 243000: 0.276 OD
  OD at dilution 729000: 0.147 OD
  OD at dilution 2187000: 0.106 OD
  OD at dilution 6561000: 0.087 OD
  OD at dilution 19683000: 0.069 OD
[6]
  Titer: 729000 dilution
[7]
  FACS positive/negative BMDM: 2.72 ratio
